Measurements from patent US20210071114.

T1: FRET substrate GGGFG
T1 chain: GGGFG

T2: FRET substrate GGGLG
T2 chain: GGGLG

T3: FRET substrate GGGSG
T3 chain: GGGSG

T4: FRET substrate GGGYG
T4 chain: GGGYG

T5: FRET-GGGGG (FRET substrate having pentaglycine between Nma and Lys(Dnp))
T5 chain: GGGGG

T6: keratin 10
T6 chain: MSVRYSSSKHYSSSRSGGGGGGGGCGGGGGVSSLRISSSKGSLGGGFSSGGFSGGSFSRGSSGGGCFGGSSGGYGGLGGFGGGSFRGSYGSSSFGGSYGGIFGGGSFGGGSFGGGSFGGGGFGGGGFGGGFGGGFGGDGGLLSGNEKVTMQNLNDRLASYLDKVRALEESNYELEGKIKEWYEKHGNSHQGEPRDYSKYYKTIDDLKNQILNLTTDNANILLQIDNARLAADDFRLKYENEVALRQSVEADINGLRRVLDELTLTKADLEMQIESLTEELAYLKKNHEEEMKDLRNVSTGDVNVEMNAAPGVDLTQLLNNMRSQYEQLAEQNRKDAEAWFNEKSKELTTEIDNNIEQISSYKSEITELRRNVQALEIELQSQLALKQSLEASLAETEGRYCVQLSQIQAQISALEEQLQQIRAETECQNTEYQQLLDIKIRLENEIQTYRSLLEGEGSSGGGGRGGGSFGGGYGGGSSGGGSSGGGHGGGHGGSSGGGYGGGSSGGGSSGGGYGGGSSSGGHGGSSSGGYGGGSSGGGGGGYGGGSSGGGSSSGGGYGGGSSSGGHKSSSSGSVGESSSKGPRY

T7: recombinant loricrin fused with a tag sequence (Recombinant Human Loricrin Protein; Abcam, ab114261)
T7 chain: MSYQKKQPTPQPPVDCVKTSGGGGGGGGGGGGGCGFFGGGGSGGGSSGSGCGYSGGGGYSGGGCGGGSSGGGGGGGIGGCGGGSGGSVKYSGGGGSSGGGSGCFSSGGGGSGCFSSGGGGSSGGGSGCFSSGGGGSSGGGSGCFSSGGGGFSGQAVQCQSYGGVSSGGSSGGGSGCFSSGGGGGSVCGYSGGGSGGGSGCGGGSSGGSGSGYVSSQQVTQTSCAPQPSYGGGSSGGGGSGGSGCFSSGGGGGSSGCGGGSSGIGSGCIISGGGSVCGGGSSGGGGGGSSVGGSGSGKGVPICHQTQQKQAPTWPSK


Experiments:
[1] = target: keratin azure, which uses wool as a raw material (K8500)
[2] = target: keratin solution obtained from human heel corneum
[3] = target: T1, FRET substrate GGGFG
[4] = target: T2, FRET substrate GGGLG
[5] = target: T3, FRET substrate GGGSG
[6] = target: T4, FRET substrate GGGYG
[7] = target: T5, FRET-GGGGG (FRET substrate having …)
[8] = target: corneocyte-derived insoluble keratin (insoluble corneum fraction from the human neck)
[9] = target: T6, keratin 10
[10] = target: T7, recombinant loricrin fused with a tag …

Protein | ΔA595 of the supernatant (property of degrading wool keratin) [1] | Enzymatic degradation of keratin, SDS-PAGE (CBB staining) [2] | Specific activity (U/mg) [3] [U/mg] | Specific activity (U/mg) [4] [U/mg] | Specific activity (U/mg) [5] [U/mg] | Specific activity (U/mg) [6] [U/mg] | Specific activity (U/mg) [7] [U/mg] | Degradation of corneocyte-derived insoluble keratin, SDS-PAGE (ruby staining) of the supernatant [8] | Cleavage of keratin 10, concluded from SDS-PAGE bands and the mass spectrometry of the BLP sample [9] | Mass spectrometry of the SDS-PAGE band of the enzyme-treated solution [9] | Loricrin-degrading activity, SDS-PAGE and N-terminus sequencing of the remaining bands [10]
proteinase K (Kanto Chemical Co., Inc., 34076-92) (protein) AAQTNAPWGLARISSTSPGTSTYYYDESAGQGSCVYVIDTGIEASHPEFEGRAQMVKTYYYSSRDGNGHGTHCAGTVGSRTYGVAKKTQLFGVKVLDDNGSGQYSTIIAGMDFVASDKNNRNCPKGVVASLSLGGGYSSSVNSAAARLQSSGVMVAVAAGNNNADARNYSPASEPSVCTVGASDRYDRRSSFSNYGSVLDIFGPGTSILSTWIGGSTRSISGTSMATPHVAGLAAYLMTLGKTTAASACRYIADTANKGDLSNIPFGTVNLLAYNNYQA | The absorbance of the samples containing Savinase (registered trade name), Alcalase (registered trade name), or proteinase K was increased compared with that of the samples containing BLP, LasA, or AhP | major bands were lost for the solutions containing Savinase (registered trade name), Alcalase (registered trade name), and proteinase K |  |  |  |  |  |  |  |  | 
Las A protein (LasA or LAS) (protein) APPSNLMQLPWRQGYSWQPNGAHSNTGSGYPYSSFDASYDWPRWGSATYSVVAAHAGTVRVLSRCQVRVTHPSGWATNYYHMDQIQVSNGQQVSADTKLGVYAGNINTALCEGGSSTGPHLHFSLLYNGAFVSLQGASFGPYRINVGTSNYDNDCRRYYFYNQSAGTTHCAFRPLYNPGLAL | The absorbance of the samples containing Savinase (registered trade name), Alcalase (registered trade name), or proteinase K was increased compared with that of the samples containing BLP, LasA, or AhP | bands were detected between the molecular weight marker of 37,000 and the molecular weight marker of 50,000 | 19 | 10 | 19 | 29 | 19 | A band was detected between the molecular weight marker of 37,000 and the molecular weight marker of 50,000 for all the solutions containing BLP, LasA, and AhP | BLP and other M23A subfamily enzymes cleaved the glycine-rich regions at both ends of the amino acid sequence of keratin 10 |  | 
ALE-1 glycylglycine endopeptidase (ALE-1) (protein) STKVDAPKVEQEAPAKADAPKVEQEAPAKADAPKVEQEAPAKVDAPKVEQEAPAKVDAPKVEQEAPAKADAPKVEQKRTFVREAAQSNHSASWLNNYKKGYGYGPYPLGINGGNHYGVDFFMNVGTPVRAISDGKIVEAGWTNYGGGNEIGLVENDGVHRQWYMHLSKFNVKVGDRVKAGQIIGWSGSTGYSTAPHLHFQRMTNSFSNNTAQDPMPFLKSAGYGSNSTSSSNNNGYKTNKYGTLYKSESASFTANTDIITRLTGPFRSMPQSGVLRKGLTIKYDEVMKQDGHVWVGYNTNSGKRVYLPVRTWNESTGELGPLWGTIK |  | degradation of keratin was not observed for the solutions containing M23B subfamily enzymes ALE-1 and lysostaphin | 0 | 0 | 0 | 0 | 3 |  |  |  | 
Aeromonas hydrophila proteinase (AhP) (protein) AGGQFQLPWRQGYSWKANGAHSHTGSGYPYSSIDVSYDWPGWGGATYTVTAANSGTVTVFSRCQVRVTATNGWATNYYHMSGISVRSGDYVAADTPIGTYASNRNEALCEGGSSTGPHLHFSLLYNGVFQSLQGQRLSSYAVNVGASNYDDNCNRFWLYNQRNGQRYCAWQPLYNNGID | The absorbance of the samples containing Savinase (registered trade name), Alcalase (registered trade name), or proteinase K was increased compared with that of the samples containing BLP, LasA, or AhP | bands were detected between the molecular weight marker of 37,000 and the molecular weight marker of 50,000 | 51 | 31 | 10 | 98 | 53 | A band was detected between the molecular weight marker of 37,000 and the molecular weight marker of 50,000 for all the solutions containing BLP, LasA, and AhP | BLP and other M23A subfamily enzymes cleaved the glycine-rich regions at both ends of the amino acid sequence of keratin 10 |  | 
Savinase (registered trade name) (SIGMA, P3111) (protein) AQSVPWGISRVQAPAAHNRGLTGSGVKVAVLDTGISTHPDLNIRGGASFVPGEPSTQDGNGHGTHVAGTIAALNNSIGVLGVAPSAELYAVKVLGASGSGSVSSIAQGLEWAGNNGMHVANLSLGSPSPSATLEQAVNSATSRGVLVVAASGNSGAGSISYPARYANAMAVGATDQNNNRASFSQYGAGLDIVAPGVNVQSTYPGSTYASLNGTSMATPHVAGAAALVKQKNPSWSNVQIRNHLKNTATSLGSTNLYGSGLVNAEAATR | The absorbance of the samples containing Savinase (registered trade name), Alcalase (registered trade name), or proteinase K was increased compared with that of the samples containing BLP, LasA, or AhP | major bands were lost for the solutions containing Savinase (registered trade name), Alcalase (registered trade name), and proteinase K |  |  |  |  |  |  |  |  | 
β-lytic metalloprotease (beta-lytic metallopeptidase; BLP) (protein) SPNGLLQFPFPRGASWHVGGAHTNTGSGNYPMSSLDMSRGGGWGSNQNGNWVSASAAGSFKRHSSCFAEIVHTGGWSTTYYHLMNIQYNTGANVSMNTAIANPANTQAQALCNGGQSTGPHEHWSLKQNGSFYHLNGTYLSGYRITATGSSYDTNCSRFYLTKNGQNYCYGYYVNPGPN | The absorbance of the samples containing Savinase (registered trade name), Alcalase (registered trade name), or proteinase K was increased compared with that of the samples containing BLP, LasA, or AhP | bands were detected between the molecular weight marker of 37,000 and the molecular weight marker of 50,000 | 83 | 3 | 231 | 74 | 186 | A band was detected between the molecular weight marker of 37,000 and the molecular weight marker of 50,000 for all the solutions containing BLP, LasA, and AhP |  | the proteins contained in this band region were fragments of keratin 10 | none of the N-terminus amino acid sequences of the bands were the sequence of loricrin, the bands were inferred to be derived from the tag sequence
Alcalase (registered trade name) (SIGMA, P4860) (protein) AQTVPYGIPLIKADKVQAQGFKGANVKVAVLDTGIQASHPDLNVVGGASFVAGEAYNTDGNGHGTHVAGTVAALDNTTGVLGVAPSVSLYAVKVLNSSGSGSYSGIVSGIEWATTNGMDVINMSLGGASGSTAMKQAVDNAYAKGVVVVAAAGNSGSSGNTNTIGYPAKYDSVIAVGAVDSNSNRASFSSVGAELEVMAPGAGVYSTYPTNTYATLNGTSMASPHVAGAAALILSKHPNLSASQVRNRLSSTATYLGSSFYYGKGLINVEAAAQ | The absorbance of the samples containing Savinase (registered trade name), Alcalase (registered trade name), or proteinase K was increased compared with that of the samples containing BLP, LasA, or AhP | major bands were lost for the solutions containing Savinase (registered trade name), Alcalase (registered trade name), and proteinase K |  |  |  |  |  |  |  |  | 
